Results: patent US20150361164A1 (EVEC, published 2015)
Where a chain is given by its changes, count along the chain named. In names and notes the source's numbering stands.

T1: human-derived recombinant HMGB1 (expressed in Sf9 cells) (human, UniProt P09429 1-215, limits assumed)
T1 construct: Purified from baculovirus-infected Sf9 cells on Ni-NTA; also called Sf6-expressed recombinant human HMGB1; Sf6-derived recombinant HMGB1
T1 sequence (looked up): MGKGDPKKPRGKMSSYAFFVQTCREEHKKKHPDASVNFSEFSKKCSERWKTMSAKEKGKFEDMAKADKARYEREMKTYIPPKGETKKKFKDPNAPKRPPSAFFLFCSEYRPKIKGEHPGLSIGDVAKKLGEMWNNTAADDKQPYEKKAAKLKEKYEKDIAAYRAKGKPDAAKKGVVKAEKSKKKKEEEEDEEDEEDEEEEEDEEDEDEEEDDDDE

T2: bovine thymus-derived HMGB1 (bovine, UniProt P10103 2-215)
T2 construct: Bought protein from tissue
T2 sequence (looked up): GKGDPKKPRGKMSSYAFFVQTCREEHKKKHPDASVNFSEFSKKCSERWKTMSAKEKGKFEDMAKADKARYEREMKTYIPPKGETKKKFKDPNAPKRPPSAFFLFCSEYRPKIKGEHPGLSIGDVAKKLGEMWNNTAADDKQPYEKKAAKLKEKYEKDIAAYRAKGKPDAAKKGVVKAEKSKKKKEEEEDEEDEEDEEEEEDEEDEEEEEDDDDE

T3: HMGB1 most C-terminal 8 residues synthetic peptide #10 EEEDDDDE
T3 construct: Synthetic peptide (SIGMA-ALDRICH, PEPScreen), dotted at 4 µg/spot on nitrocellulose
T3 peptide: EEEDDDDE

T4: HMGB1 C-terminal region synthetic peptide #9 EDEDEEEDDDDE
T4 construct: Synthetic peptide (SIGMA-ALDRICH, PEPScreen), dotted at 4 µg/spot on nitrocellulose
T4 peptide: EDEDEEEDDDDE

B1: #10-22 chimeric antibody (antibody, human IgG1, lambda)
heavy: not shown
light: YELIQPPSASVTLGNTVSITCSGDELPKRYAYWYQQKPDKSIVRVIYKDSERPSGISDRFSGSSSGTTATLTIRDTQAEDEADYYCHSTYSDDKLPVFGGGTKLTVLGQPKAAPSVTLFPPSSEELQANKATLVCLISDFYPGAVTVAWKADSSPVKAGVETTTPSKQSNNKYAASSYLSLTPEQWKSHRSYSCQVTHEGSTVEKTVAPTECS
notes: Rat #10-22 variable regions with human IgG1(lambda) constant regions; also called #10-22 chimera
B2: D77G (antibody, human IgG1, lambda, V domains shown)
VH: AVQLVESGGGLVQPKESLKISCAASGFTFSNAAMYWVRQAPGKGLEWVARIRTKPNNYATYYADSVKGRFTISRDDSKSMVYLQMDNLKTEDTAMYYCTAPRRTEGIVSSGVDYWGQGVMVTVSS
VL: YELIQPPSASVTLGNTVSITCSGDELPKRYAYWYQQKPDKSIVRVIYKDSERPSGISDRFSGSSSGTTATLTIRGTQAEDEADYYCHSTYSDDKLPVFGGGTKLTVLG
notes: co-expressed with the #10-22 chimeric antibody H chain in CHO-K1 cells; also called #10-22 chimeric antibody (L chain) site substitution variant D77G
B3: K42Q (antibody, human IgG1, lambda, V domains shown)
VH: B2 VH
VL: B2 VL with K40Q, G75D
notes: co-expressed with the #10-22 chimeric antibody H chain in CHO-K1 cells; also called #10-22 chimeric antibody (L chain) site substitution variant K42Q
B4: R76S (antibody, human IgG1, lambda, V domains shown)
VH: B2 VH
VL: B2 VL with R74S, G75D
notes: co-expressed with the #10-22 chimeric antibody H chain in CHO-K1 cells; also called #10-22 chimeric antibody (L chain) site substitution variant R76S
B5: S59P (antibody, human IgG1, lambda, V domains shown)
VH: B2 VH
VL: B2 VL with S57P, G75D
notes: co-expressed with the #10-22 chimeric antibody H chain in CHO-K1 cells; also called #10-22 chimeric antibody (L chain) site substitution variant S59P
B6: #10-22 humanized antibody EV007156 (antibody, human IgG1, lambda, V domains shown)
VH: EVQLVESGGGLVQPGGSLKLSCAASGFTFSNAAMYWVRQASGKGLEWVARIRTKPNNYATYYADSVKGRFTISRDDSKNTAYLQMNSLKTEDTAVYYCTAPRRTEGIVSSGVDYWGQGTLVTVSS
VL: YELTQPPSVSVSPGQTASITCSGDELPKRYAYWYQQKPGQSIVRVIYKDSERPSGIPERFSGSSSGTTATLTISGTQAEDEADYYCHSTYSDDKLPVFGGGTKLTVLG
notes: also called EV007156H + EV007156L

Legend:
[1] = biological target: T1, human-derived recombinant HMGB1 …; test: competition ELISA, inhibition of HMGB1 binding to immobilized RAGE-Fc
Procedure: RAGE-Fc (R&D, 250 ng/well) was immobilized overnight at 4° C. on immunoplates (Nunc, Maxisorp) and 5% BSA (bovine serum albumin) was added thereto to block the plates for 2 hours, followed by addition of human monoclonal antibody (Control Ig) to block the plates for 2 hours. HMGB1 (Sf6-derived recombinant HMGB1, final concentration: 2 μg/ml) was mixed with anti-HMGB1 antibody (#10-22 chimera, EV007156 or G4) or non-HMGB1-specific human monoclonal antibody (Control Ig) serving as a negative control antibody at a final concentration of 0, 0.02, 0.2, 2 or 20 μg/ml and incubated for 60 minutes. Subsequently, the reaction solutions were added to the immunoplates and reacted for 2 hours. Then, anti-HMGB1 antibody (Abnova, #H00003146-M08, 1 μg/ml) which had been biotinylated with a Biotin Labeling Kit (Dojindo, LK03) was reacted at room temperature for 1 hour. Finally, HRP-labeled streptavidin was reacted at room temperature for 1 hour. TMB (3,3′,5,5′-tetramethylbenzidine; SureBlue, KPL, #52-00-03) was added and HMGB1 bound to RAGE was detected by absorbance at 450 nm (FIG. 10). #10-22 chimera, EV007156 and G4 were all found to inhibit the binding of HMGB1 to RAGE in a manner dependent on the added antibody concentration.

[2] = biological target: T2, bovine thymus-derived HMGB1; test: ELISA on HMGB1-immobilized immunoplate, antibodies adjusted to an equal concentration; OD as % of #10-22 chimera (source of the HMGB1 not named for this figure)
[3] = biological target: T3, HMGB1 most C-terminal 8 residues …; test: dot blotting, peptide at 4 µg/spot, antibody at 1 µg/ml
Procedure: (§1) To identify the positions of amino acids where the epitope of EV007156 against HMGB1 was located from among those constituting the C-terminal end of HMGB1, peptide mapping was conducted. Namely, 9 types of 12-residue long amino acids at 3 residue intervals and the most C-terminal 8 residues, i.e., 10 peptides in total (#1. […] (SEQ ID NO: 51), #2. […] (SEQ ID NO: 52), #3. […] (SEQ ID NO: 53), #4. EEDEEEEEDEED (SEQ ID NO: 54), #5. DEEEEEDEEDED (SEQ ID NO: 55), #6. […] (SEQ ID NO: 56), #7. EEDEEDEDEEED (SEQ ID NO: 57), #8. […] (SEQ ID NO: 58), #9. […] (SEQ ID NO: 59), #10. […] (SEQ ID NO: 60)) were designed to cover all the amino acids constituting the C-terminal region of HMGB1. The peptides thus synthesized (SIGMA-ALDRICH, PEPScreen) were each dissolved at 4 mg/ml in a 0.1 M ammonium acetate solution and added dropwise at 4 μg/spot onto a nitrocellulose membrane. After drying, the membrane was blocked with 5% skimmed milk-TBST for 90 minutes. EV007156 was then reacted for 1 hour at a concentration of 1 μg/ml. Subsequently, HRP-labeled anti-human IgG antibody (MBL, #208) was reacted for 1 hour, followed by detection using ECL prime (GE Healthcare, RPN2232) (FIG. 18). […], and more particularly the most C-terminal 8 residues (#10. […] (SEQ ID NO: 60)).

[4] = biological target: T4, HMGB1 C-terminal region synthetic …; test: as above
Procedure: as §1

| Binder | binding result [2] | also measured |
| --- | --- | --- |
| B1 | – | IC50 [1]: 3.04 µg/mL |
| B2 | binds | – |
| B3 | binds | – |
| B4 | binds | – |
| B5 | binds | – |
| B6 | – | binding result [3]: binds; binding result [4]: binds |
